Target: SmBiT fused to the N-terminus of BCR-ABL
Experiment: NanoBiT split-luciferase complementation in cells, LgBiT and SmBiT at the N-terminus of BCR-ABL; complex induced by a homo-bifunctional small molecule (homo-PHICS)

Q: How did the fold increase in luminescence compared to the DMSO/background turn out when “LgBiT fused to the N-terminus of BCR-ABL (enzyme)” was run?
A: 6 fold

— US20240024490A1, “BIFUNCTIONAL MOLECULES FOR SELECTIVE MODIFICATION OF TARGET SUBSTRATES” (The Broad Institute, Inc., priority 2021, published 2024)
